According to the supplement of paper PMC10567573:

B1: PPEF2 (parent)
chain: FIPSSHNDRDFLTRIFTEDRFAQD

Variants of: B1
Experiment: protein stability index of a GFP-peptide fusion (GPS, HEK-293T) (PSI 1-6); higher = more stable
Details: c terminus: a fixed tail appended
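Also: lentivirally expressed fusions sorted by FACS into six bins by GFP to DsRed ratio, PSI derived from sequencing read proportions per bin multiplied by bin number.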

| Variant | protein stability index |
| --- | --- |
| FIPSSHNERDFLTRIFTEDRFAQD | 1.53 |
| FIPSSHNFRDFLTRIFTEDRFAQD | 2.38 |
| FIPSSHNGRDFLTRIFTEDRFAQD | 2.51 |
| FIPSSHNHRDFLTRIFTEDRFAQD | 2.04 |
| FIPSSHNIRDFLTRIFTEDRFAQD | 1.68 |
| FIPSSHNKRDFLTRIFTEDRFAQD | 1.53 |
| FIPSSHNLRDFLTRIFTEDRFAQD | 1.52 |
| FIPSSHNMRDFLTRIFTEDRFAQD | 1.93 |
| FIPSSHNNRDFLTRIFTEDRFAQD | 1.99 |
| FIPSSHNPRDFLTRIFTEDRFAQD | 1.89 |
| FIPSSHNQRDFLTRIFTEDRFAQD | 2.15 |
| FIPSSHNRRDFLTRIFTEDRFAQD | 2.25 |
| FIPSSHNSRDFLTRIFTEDRFAQD | 1.3 |
| FIPSSHNTRDFLTRIFTEDRFAQD | 2.1 |
| FIPSSHNVRDFLTRIFTEDRFAQD | 2.08 |
| FIPSSHNWRDFLTRIFTEDRFAQD | 2.16 |
| FIPSSHNYRDFLTRIFTEDRFAQD | 2.55 |
| FIPSSHNDADFLTRIFTEDRFAQD | 2.23 |
| FIPSSHNDCDFLTRIFTEDRFAQD | 2.23 |
| FIPSSHNDDDFLTRIFTEDRFAQD | 2.18 |
| FIPSSHNDEDFLTRIFTEDRFAQD | 1.89 |
| FIPSSHNDFDFLTRIFTEDRFAQD | 2.21 |
| FIPSSHNDGDFLTRIFTEDRFAQD | 2.01 |
| FIPSSHNDHDFLTRIFTEDRFAQD | 1.54 |

| Variant | protein stability index |
| --- | --- |
| FIPSSHNDIDFLTRIFTEDRFAQD | 1.76 |
| FIPSSHNDKDFLTRIFTEDRFAQD | 2.48 |
| FIPSSHNDLDFLTRIFTEDRFAQD | 1.81 |
| FIPSSHNDMDFLTRIFTEDRFAQD | 2.3 |
| FIPSSHNDNDFLTRIFTEDRFAQD | 1.76 |
| FIPSSHNDPDFLTRIFTEDRFAQD | 1.69 |
| FIPSSHNDQDFLTRIFTEDRFAQD | 1.53 |
| FIPSSHNDSDFLTRIFTEDRFAQD | 1.98 |
| FIPSSHNDTDFLTRIFTEDRFAQD | 1.74 |
| FIPSSHNDVDFLTRIFTEDRFAQD | 2.2 |
| FIPSSHNDWDFLTRIFTEDRFAQD | 2.3 |
| FIPSSHNDYDFLTRIFTEDRFAQD | 1.89 |
| FIPSSHNDRAFLTRIFTEDRFAQD | 2.69 |
| FIPSSHNDRCFLTRIFTEDRFAQD | 2.41 |
| FIPSSHNDREFLTRIFTEDRFAQD | 1.96 |
| FIPSSHNDRFFLTRIFTEDRFAQD | 2.05 |
| FIPSSHNDRGFLTRIFTEDRFAQD | 2.46 |
| FIPSSHNDRHFLTRIFTEDRFAQD | 2.8 |
| FIPSSHNDRIFLTRIFTEDRFAQD | 3.22 |
| FIPSSHNDRKFLTRIFTEDRFAQD | 1.89 |
| FIPSSHNDRMFLTRIFTEDRFAQD | 1.87 |
| FIPSSHNDRNFLTRIFTEDRFAQD | 2.96 |
| FIPSSHNDRPFLTRIFTEDRFAQD | 2.14 |
| FIPSSHNDRQFLTRIFTEDRFAQD | 2.77 |

| Variant | protein stability index |
| --- | --- |
| FIPSSHNDRRFLTRIFTEDRFAQD | 2.67 |
| FIPSSHNDRSFLTRIFTEDRFAQD | 2.37 |
| FIPSSHNDRTFLTRIFTEDRFAQD | 2.54 |
| FIPSSHNDRVFLTRIFTEDRFAQD | 3.75 |
| FIPSSHNDRWFLTRIFTEDRFAQD | 2.6 |
| FIPSSHNDRYFLTRIFTEDRFAQD | 2.39 |
| FIPSSHNDRDALTRIFTEDRFAQD | 1.98 |
| FIPSSHNDRDCLTRIFTEDRFAQD | 2.8 |
| FIPSSHNDRDDLTRIFTEDRFAQD | 2.74 |
| FIPSSHNDRDELTRIFTEDRFAQD | 2.33 |
| FIPSSHNDRDGLTRIFTEDRFAQD | 2.21 |
| FIPSSHNDRDHLTRIFTEDRFAQD | 1.89 |
| FIPSSHNDRDILTRIFTEDRFAQD | 1.8 |
| FIPSSHNDRDKLTRIFTEDRFAQD | 1.76 |
| FIPSSHNDRDLLTRIFTEDRFAQD | 1.56 |
| FIPSSHNDRDMLTRIFTEDRFAQD | 2.13 |
| FIPSSHNDRDNLTRIFTEDRFAQD | 2.67 |
| FIPSSHNDRDPLTRIFTEDRFAQD | 2.16 |
| FIPSSHNDRDQLTRIFTEDRFAQD | 2 |
| FIPSSHNDRDRLTRIFTEDRFAQD | 1.99 |
| FIPSSHNDRDSLTRIFTEDRFAQD | 1.58 |
| FIPSSHNDRDTLTRIFTEDRFAQD | 1.7 |
| FIPSSHNDRDVLTRIFTEDRFAQD | 2.01 |
| FIPSSHNDRDWLTRIFTEDRFAQD | 1.93 |

| Variant | protein stability index |
| --- | --- |
| FIPSSHNDRDYLTRIFTEDRFAQD | 2.1 |
| FIPSSHNDRDFATRIFTEDRFAQD | 2.82 |
| FIPSSHNDRDFCTRIFTEDRFAQD | 2.29 |
| FIPSSHNDRDFDTRIFTEDRFAQD | 2.26 |
| FIPSSHNDRDFETRIFTEDRFAQD | 2.2 |
| FIPSSHNDRDFFTRIFTEDRFAQD | 2.18 |
| FIPSSHNDRDFGTRIFTEDRFAQD | 1.52 |
| FIPSSHNDRDFHTRIFTEDRFAQD | 2.33 |
| FIPSSHNDRDFITRIFTEDRFAQD | 3.01 |
| FIPSSHNDRDFKTRIFTEDRFAQD | 2.38 |
| FIPSSHNDRDFMTRIFTEDRFAQD | 1.53 |
| FIPSSHNDRDFNTRIFTEDRFAQD | 1.45 |
| FIPSSHNDRDFPTRIFTEDRFAQD | 1.74 |
| FIPSSHNDRDFQTRIFTEDRFAQD | 1.82 |
| FIPSSHNDRDFRTRIFTEDRFAQD | 1.72 |
| FIPSSHNDRDFSTRIFTEDRFAQD | 1.54 |
| FIPSSHNDRDFTTRIFTEDRFAQD | 2.17 |
| FIPSSHNDRDFVTRIFTEDRFAQD | 2.86 |
| FIPSSHNDRDFWTRIFTEDRFAQD | 2.85 |
| FIPSSHNDRDFYTRIFTEDRFAQD | 1.98 |
| FIPSSHNDRDFLARIFTEDRFAQD | 2.57 |
| FIPSSHNDRDFLCRIFTEDRFAQD | 2.75 |
